{
  "source": "paper PMC12416549",
  "about": "(2024)",
  "data": [
    {"target": "T1, TNFR1 (Homo sapiens, UniProt P19438)", "T1 chain": "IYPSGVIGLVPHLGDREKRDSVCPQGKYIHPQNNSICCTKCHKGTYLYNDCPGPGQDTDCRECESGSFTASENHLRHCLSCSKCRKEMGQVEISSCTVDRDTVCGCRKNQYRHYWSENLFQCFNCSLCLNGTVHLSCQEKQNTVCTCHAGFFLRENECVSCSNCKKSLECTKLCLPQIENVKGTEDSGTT", "test": "yeast display SC50", "units": {"apparent Kd (screen)": "nM"}, "values": [
      {"binder": "E34H (designed binder) SMEEEVEKAAKEYEKKKKEAIEKHLEKLKAKDKHAAERFLKELEEAAKEYAKDEAKTMSEEEAKRRAKKYKEKVLLSELSEEEQKEIKEAEEKLVRTILKYVEEAAK", "apparent Kd (screen)": 0.446},
      {"binder": "R38E (designed binder) SMEEEVEKAAKEYEKKKKEAIEKHLEKLKAKDKEAAEEFLKELEEAAKEYAKDEAKTMSEEEAKRRAKKYKEKVLLSELSEEEQKEIKEAEEKLVRTILKYVEEAAK", "apparent Kd (screen)": 2.73},
      {"binder": "E62P (designed binder) SMEEEVEKAAKEYEKKKKEAIEKHLEKLKAKDKEAAERFLKELEEAAKEYAKDEAKTMSEEPAKRRAKKYKEKVLLSELSEEEQKEIKEAEEKLVRTILKYVEEAAK", "apparent Kd (screen)": 15.2},
      {"binder": "L25E (designed binder) SMEEEVEKAAKEYEKKKKEAIEKHEEKLKAKDKEAAERFLKELEEAAKEYAKDEAKTMSEEEAKRRAKKYKEKVLLSELSEEEQKEIKEAEEKLVRTILKYVEEAAK", "apparent Kd (screen)": 2.73},
      {"binder": "E22V (designed binder) SMEEEVEKAAKEYEKKKKEAIVKHLEKLKAKDKEAAERFLKELEEAAKEYAKDEAKTMSEEEAKRRAKKYKEKVLLSELSEEEQKEIKEAEEKLVRTILKYVEEAAK", "apparent Kd (screen)": 1.16},
      {"binder": "K23V (designed binder) SMEEEVEKAAKEYEKKKKEAIEVHLEKLKAKDKEAAERFLKELEEAAKEYAKDEAKTMSEEEAKRRAKKYKEKVLLSELSEEEQKEIKEAEEKLVRTILKYVEEAAK", "apparent Kd (screen)": 0.869},
      {"binder": "I21R (designed binder) SMEEEVEKAAKEYEKKKKEAREKHLEKLKAKDKEAAERFLKELEEAAKEYAKDEAKTMSEEEAKRRAKKYKEKVLLSELSEEEQKEIKEAEEKLVRTILKYVEEAAK", "apparent Kd (screen)": 0.869},
      {"binder": "L76W (designed binder) SMEEEVEKAAKEYEKKKKEAIEKHLEKLKAKDKEAAERFLKELEEAAKEYAKDEAKTMSEEEAKRRAKKYKEKVLWSELSEEEQKEIKEAEEKLVRTILKYVEEAAK", "apparent Kd (screen)": 3},
      {"binder": "Y70L (designed binder) SMEEEVEKAAKEYEKKKKEAIEKHLEKLKAKDKEAAERFLKELEEAAKEYAKDEAKTMSEEEAKRRAKKLKEKVLLSELSEEEQKEIKEAEEKLVRTILKYVEEAAK", "apparent Kd (screen)": 8.56},
      {"binder": "K69W (designed binder) SMEEEVEKAAKEYEKKKKEAIEKHLEKLKAKDKEAAERFLKELEEAAKEYAKDEAKTMSEEEAKRRAKWYKEKVLLSELSEEEQKEIKEAEEKLVRTILKYVEEAAK", "apparent Kd (screen)": 11.4},
      {"binder": "L28E (designed binder) SMEEEVEKAAKEYEKKKKEAIEKHLEKEKAKDKEAAERFLKELEEAAKEYAKDEAKTMSEEEAKRRAKKYKEKVLLSELSEEEQKEIKEAEEKLVRTILKYVEEAAK", "apparent Kd (screen)": 0.539},
      {"binder": "E5C (designed binder) SMEECVEKAAKEYEKKKKEAIEKHLEKLKAKDKEAAERFLKELEEAAKEYAKDEAKTMSEEEAKRRAKKYKEKVLLSELSEEEQKEIKEAEEKLVRTILKYVEEAAK", "apparent Kd (screen)": 1.05},
      {"binder": "V74A (designed binder) SMEEEVEKAAKEYEKKKKEAIEKHLEKLKAKDKEAAERFLKELEEAAKEYAKDEAKTMSEEEAKRRAKKYKEKALLSELSEEEQKEIKEAEEKLVRTILKYVEEAAK", "apparent Kd (screen)": 16.7},
      {"binder": "K29S (designed binder) SMEEEVEKAAKEYEKKKKEAIEKHLEKLSAKDKEAAERFLKELEEAAKEYAKDEAKTMSEEEAKRRAKKYKEKVLLSELSEEEQKEIKEAEEKLVRTILKYVEEAAK", "apparent Kd (screen)": 0.446},
      {"binder": "E44N (designed binder) SMEEEVEKAAKEYEKKKKEAIEKHLEKLKAKDKEAAERFLKELNEAAKEYAKDEAKTMSEEEAKRRAKKYKEKVLLSELSEEEQKEIKEAEEKLVRTILKYVEEAAK", "apparent Kd (screen)": 1.05},
      {"binder": "L43K (designed binder) SMEEEVEKAAKEYEKKKKEAIEKHLEKLKAKDKEAAERFLKEKEEAAKEYAKDEAKTMSEEEAKRRAKKYKEKVLLSELSEEEQKEIKEAEEKLVRTILKYVEEAAK", "apparent Kd (screen)": 0.869},
      {"binder": "E49F (designed binder) SMEEEVEKAAKEYEKKKKEAIEKHLEKLKAKDKEAAERFLKELEEAAKFYAKDEAKTMSEEEAKRRAKKYKEKVLLSELSEEEQKEIKEAEEKLVRTILKYVEEAAK", "apparent Kd (screen)": 9.41},
      {"binder": "K73T (designed binder) SMEEEVEKAAKEYEKKKKEAIEKHLEKLKAKDKEAAERFLKELEEAAKEYAKDEAKTMSEEEAKRRAKKYKETVLLSELSEEEQKEIKEAEEKLVRTILKYVEEAAK", "apparent Kd (screen)": 13.8},
      {"binder": "E86Q (designed binder) SMEEEVEKAAKEYEKKKKEAIEKHLEKLKAKDKEAAERFLKELEEAAKEYAKDEAKTMSEEEAKRRAKKYKEKVLLSELSEEEQKQIKEAEEKLVRTILKYVEEAAK", "apparent Kd (screen)": 0.446},
      {"binder": "K69L (designed binder) SMEEEVEKAAKEYEKKKKEAIEKHLEKLKAKDKEAAERFLKELEEAAKEYAKDEAKTMSEEEAKRRAKLYKEKVLLSELSEEEQKEIKEAEEKLVRTILKYVEEAAK", "apparent Kd (screen)": 0.446},
      {"binder": "E49N (designed binder) SMEEEVEKAAKEYEKKKKEAIEKHLEKLKAKDKEAAERFLKELEEAAKNYAKDEAKTMSEEEAKRRAKKYKEKVLLSELSEEEQKEIKEAEEKLVRTILKYVEEAAK", "apparent Kd (screen)": 10.4},
      {"binder": "K100S (designed binder) SMEEEVEKAAKEYEKKKKEAIEKHLEKLKAKDKEAAERFLKELEEAAKEYAKDEAKTMSEEEAKRRAKKYKEKVLLSELSEEEQKEIKEAEEKLVRTILSYVEEAAK", "apparent Kd (screen)": 0.653},
      {"binder": "Y70M (designed binder) SMEEEVEKAAKEYEKKKKEAIEKHLEKLKAKDKEAAERFLKELEEAAKEYAKDEAKTMSEEEAKRRAKKMKEKVLLSELSEEEQKEIKEAEEKLVRTILKYVEEAAK", "apparent Kd (screen)": 6.43},
      {"binder": "E103V (designed binder) SMEEEVEKAAKEYEKKKKEAIEKHLEKLKAKDKEAAERFLKELEEAAKEYAKDEAKTMSEEEAKRRAKKYKEKVLLSELSEEEQKEIKEAEEKLVRTILKYVVEAAK", "apparent Kd (screen)": 0.539},
      {"binder": "F39L (designed binder) SMEEEVEKAAKEYEKKKKEAIEKHLEKLKAKDKEAAERLLKELEEAAKEYAKDEAKTMSEEEAKRRAKKYKEKVLLSELSEEEQKEIKEAEEKLVRTILKYVEEAAK", "apparent Kd (screen)": 1.16},
      {"binder": "K68M (designed binder) SMEEEVEKAAKEYEKKKKEAIEKHLEKLKAKDKEAAERFLKELEEAAKEYAKDEAKTMSEEEAKRRAMKYKEKVLLSELSEEEQKEIKEAEEKLVRTILKYVEEAAK", "apparent Kd (screen)": 1.27},
      {"binder": "K33Y (designed binder) SMEEEVEKAAKEYEKKKKEAIEKHLEKLKAKDYEAAERFLKELEEAAKEYAKDEAKTMSEEEAKRRAKKYKEKVLLSELSEEEQKEIKEAEEKLVRTILKYVEEAAK", "apparent Kd (screen)": 0.593},
      {"binder": "H24N (designed binder) SMEEEVEKAAKEYEKKKKEAIEKNLEKLKAKDKEAAERFLKELEEAAKEYAKDEAKTMSEEEAKRRAKKYKEKVLLSELSEEEQKEIKEAEEKLVRTILKYVEEAAK", "apparent Kd (screen)": 0.446},
      {"binder": "A20N (designed binder) SMEEEVEKAAKEYEKKKKENIEKHLEKLKAKDKEAAERFLKELEEAAKEYAKDEAKTMSEEEAKRRAKKYKEKVLLSELSEEEQKEIKEAEEKLVRTILKYVEEAAK", "apparent Kd (screen)": 0.539},
      {"binder": "K17Q (designed binder) SMEEEVEKAAKEYEKKQKEAIEKHLEKLKAKDKEAAERFLKELEEAAKEYAKDEAKTMSEEEAKRRAKKYKEKVLLSELSEEEQKEIKEAEEKLVRTILKYVEEAAK", "apparent Kd (screen)": 1.16},
      {"binder": "E60Y (designed binder) SMEEEVEKAAKEYEKKKKEAIEKHLEKLKAKDKEAAERFLKELEEAAKEYAKDEAKTMSYEEAKRRAKKYKEKVLLSELSEEEQKEIKEAEEKLVRTILKYVEEAAK", "apparent Kd (screen)": 0.718},
      {"binder": "A46Y (designed binder) SMEEEVEKAAKEYEKKKKEAIEKHLEKLKAKDKEAAERFLKELEEYAKEYAKDEAKTMSEEEAKRRAKKYKEKVLLSELSEEEQKEIKEAEEKLVRTILKYVEEAAK", "apparent Kd (screen)": 0.49},
      {"binder": "K107G (designed binder) SMEEEVEKAAKEYEKKKKEAIEKHLEKLKAKDKEAAERFLKELEEAAKEYAKDEAKTMSEEEAKRRAKKYKEKVLLSELSEEEQKEIKEAEEKLVRTILKYVEEAAG", "apparent Kd (screen)": 1.05}
    ]}
  ]
}
